Source: publication PMC10397247
Each block holds one binder with its values, some of them ahead of it.

Key:
4H465-AA = target: T1, 4H465-AA; assay: two-hybrid library CCmax;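 also: natural log of median RNA to DNA barcode read ratio; higher means stronger binding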
T1 chain: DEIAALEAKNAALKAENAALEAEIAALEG

4H486-AA = target: T2, 4H486-AA; assay: two-hybrid library CCmax; settings: mean of both orientations;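 also: natural log of median RNA to DNA barcode read ratio; higher means stronger binding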
T2 chain: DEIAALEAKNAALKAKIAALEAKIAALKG

4H535-AA = target: T3, 4H535-AA; assay: two-hybrid library CCmax; settings: mean of both orientations;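 also: natural log of median RNA to DNA barcode read ratio; higher means stronger binding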
T3 chain: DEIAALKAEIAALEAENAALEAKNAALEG

4H58-AA = target: T4, 4H58-AA; assay: two-hybrid library CCmax; settings: mean of both orientations;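 also: natural log of median RNA to DNA barcode read ratio; higher means stronger binding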
T4 chain: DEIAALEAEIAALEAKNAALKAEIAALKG

4H895-AA = target: T5, 4H895-AA; assay: two-hybrid library CCmax; settings: mean of both orientations;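 also: natural log of median RNA to DNA barcode read ratio; higher means stronger binding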
T5 chain: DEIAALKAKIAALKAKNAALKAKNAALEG

4H_APH = target: T6, 4H_APH; assay: two-hybrid library CCmax;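 also: natural log of median RNA to DNA barcode read ratio; higher means stronger binding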
T6 chain: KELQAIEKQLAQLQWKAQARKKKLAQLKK

4H_BCR = target: T7, 4H_BCR; assay: two-hybrid library CCmax; settings: mean of both orientations
T7 chain: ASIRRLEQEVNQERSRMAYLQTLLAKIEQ

4H_GCN4 = assay: two-hybrid library CCmax
Sequence of 4H_GCN4 (chain, as listed by the source): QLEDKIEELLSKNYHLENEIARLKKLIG

GCN2_T = assay: two-hybrid library CCmax
P2-AA-1HGe-A = target: T8, P2-AA-1HGe-A; assay: two-hybrid library CCmax; settings: mean of both orientations
T8 chain: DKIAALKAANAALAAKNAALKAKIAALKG

P2-AA-1HGe-D = target: T9, P2-AA-1HGe-D; assay: two-hybrid library CCmax; settings: mean of both orientations
T9 chain: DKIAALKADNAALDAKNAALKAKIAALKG

P2-AA-1HGe-H = target: T10, P2-AA-1HGe-H; assay: two-hybrid library CCmax; settings: mean of both orientations
T10 chain: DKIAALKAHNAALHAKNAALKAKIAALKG

P2-AA-1HGe-M = target: T11, P2-AA-1HGe-M; assay: two-hybrid library CCmax; settings: mean of both orientations
T11 chain: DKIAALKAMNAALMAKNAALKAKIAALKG

P2-AA-1HGe-Q = target: T12, P2-AA-1HGe-Q; assay: two-hybrid library CCmax; settings: mean of both orientations
T12 chain: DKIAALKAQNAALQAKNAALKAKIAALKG

P2-AA-1HGe-T = target: T13, P2-AA-1HGe-T; assay: two-hybrid library CCmax; settings: mean of both orientations
T13 chain: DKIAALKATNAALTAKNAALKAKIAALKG

P2-AA = target: T14, P2-AA; assay: two-hybrid library CCmax; settings: mean of both orientations
T14 chain: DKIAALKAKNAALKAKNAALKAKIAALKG

4H1359-bH = target: T15, 4H1359-bH; assay: two-hybrid library CCNG1
T15 chain: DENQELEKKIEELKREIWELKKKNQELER

4H1393-bH = target: T16, 4H1393-bH; assay: two-hybrid library CCNG1
T16 chain: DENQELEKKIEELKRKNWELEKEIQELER

4H1449-bH = target: T17, 4H1449-bH; assay: two-hybrid library CCNG1
T17 chain: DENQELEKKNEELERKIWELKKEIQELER

4H1629-bH = target: T18, 4H1629-bH; assay: two-hybrid library CCNG1
T18 chain: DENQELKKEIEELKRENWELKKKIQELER

4H1710-bH = target: T19, 4H1710-bH; assay: two-hybrid library CCNG1
T19 chain: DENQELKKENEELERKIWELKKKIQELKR

4H1804-bH = target: T20, 4H1804-bH; assay: two-hybrid library CCNG1
T20 chain: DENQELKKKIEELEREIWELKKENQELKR

4H1985-bH = target: T21, 4H1985-bH; assay: two-hybrid library CCNG1
T21 chain: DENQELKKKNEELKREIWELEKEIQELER

4H3129-bH = target: T22, 4H3129-bH; assay: two-hybrid library CCNG1
T22 chain: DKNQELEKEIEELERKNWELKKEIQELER

4H3172-bH = target: T23, 4H3172-bH; assay: two-hybrid library CCNG1
T23 chain: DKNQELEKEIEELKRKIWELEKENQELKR

4H3414-bH = target: T24, 4H3414-bH; assay: two-hybrid library CCNG1
T24 chain: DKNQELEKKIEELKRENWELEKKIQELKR

4H3631-bH = target: T25, 4H3631-bH; assay: two-hybrid library CCNG1
T25 chain: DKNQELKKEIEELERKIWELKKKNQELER

4H3638-bH = target: T26, 4H3638-bH; assay: two-hybrid library CCNG1
T26 chain: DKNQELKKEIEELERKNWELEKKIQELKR

4H3817-bH = target: T27, 4H3817-bH; assay: two-hybrid library CCNG1
T27 chain: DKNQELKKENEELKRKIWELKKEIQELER

4H3974-bH = target: T28, 4H3974-bH; assay: two-hybrid library CCNG1
T28 chain: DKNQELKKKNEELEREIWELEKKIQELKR

4H570-bH = target: T29, 4H570-bH; assay: two-hybrid library CCNG1
T29 chain: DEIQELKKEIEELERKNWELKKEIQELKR

4H584-bH = target: T30, 4H584-bH; assay: two-hybrid library CCNG1
T30 chain: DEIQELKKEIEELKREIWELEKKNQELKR

4H619-bH = target: T31, 4H619-bH; assay: two-hybrid library CCNG1
T31 chain: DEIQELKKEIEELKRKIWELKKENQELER

4H850-bH = target: T32, 4H850-bH; assay: two-hybrid library CCNG1
T32 chain: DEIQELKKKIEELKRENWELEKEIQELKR

4H906-bH = target: T33, 4H906-bH; assay: two-hybrid library CCNG1
T33 chain: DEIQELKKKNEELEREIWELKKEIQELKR

4H932-bN = target: T34, 4H932-bN; assay: two-hybrid library CCNG1
T34 chain: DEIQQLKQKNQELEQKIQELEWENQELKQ

interaction score (4H465-AA): -1.82
interaction score (4H486-AA): -1.47
interaction score (4H535-AA): -1.58
interaction score (4H58-AA): 0.877
interaction score (4H895-AA): -1.13
interaction score (4H_APH): -1.84
interaction score (4H_BCR): -1.2
interaction score (4H_GCN4): -2.34
interaction score (GCN2_T): -1.97
interaction score (P2-AA-1HGe-A): 1.85
interaction score (P2-AA-1HGe-D): 1.36
interaction score (P2-AA-1HGe-H): 1.53
interaction score (P2-AA-1HGe-M): 1.47
interaction score (P2-AA-1HGe-Q): 1.82
interaction score (P2-AA-1HGe-T): 2.11
interaction score (P2-AA): 1.61
B1: 4H465-AA (peptide)
chain: DEIAALEAKNAALKAENAALEAEIAALEG

interaction score (4H1359-bH): 0.989
interaction score (4H1393-bH): -0.756
interaction score (4H1449-bH): 0.00778
interaction score (4H1629-bH): -0.6
interaction score (4H1710-bH): -0.389
interaction score (4H1804-bH): 0.574
interaction score (4H1985-bH): 0.67
interaction score (4H3129-bH): -0.249
interaction score (4H3172-bH): -0.46
interaction score (4H3414-bH): -0.291
interaction score (4H3631-bH): 0.884
interaction score (4H3638-bH): -0.989
interaction score (4H3817-bH): 0.0285
interaction score (4H3974-bH): 0.477
interaction score (4H570-bH): -1.09
interaction score (4H584-bH): 0.303
interaction score (4H619-bH): -0.165
interaction score (4H850-bH): -0.848
interaction score (4H906-bH): 0.0222
interaction score (4H932-bN): -1.75
B2: 4H1359-bH (peptide)
chain: DENQELEKKIEELKREIWELKKKNQELER
